The values below come from PMC3731059.

Common to all, as to experiment: FXa generation assay
The target of experiment [1] is FVIIIa Ala1866Cys/Ser2119Cys (thrombin-activated B domainless factor VIII variant) (UniProt P00451).
Experiment [2] addresses FVIIIa Arg2116Ala (thrombin-activated B domainless factor VIII variant) (UniProt P00451).
Experiment [3] addresses FVIIIa Arg2116Val (thrombin-activated B domainless factor VIII variant) (UniProt P00451).
For experiment [4], the target named is FVIIIa Gly1750Cys/Arg2116Cys (thrombin-activated B domainless factor VIII variant) (UniProt P00451).
Experiment [5] concerns the target FVIIIa Ser2029Cys/Pro2292Cys (thrombin-activated B domainless factor VIII variant) (UniProt P00451).
Experiment [6] has as its target WT FVIIIa (thrombin-activated B domainless factor VIII) (UniProt P00451).

A word on the Kd: it is the constant that tells how readily two partners part at equilibrium. A lower Kd goes with tighter binding.

Turning to factor IXaβ (enzyme), the Kd in experiment [1] worked out at 400 pM; in experiment [2] it was 450 pM; in experiment [3], 400 pM; in experiment [4], 440 pM; in experiment [5] it was 330 pM; in experiment [6] it was 430 pM.
